Earlier results on one substance are cited in PMC6723671.

The series concerns the target CD150 (SLAM) ECD (Homo sapiens) (UniProt Q13291).

As for CD150 (SLAM) ECD (from UniProt Q13291), the Kd (in general, the free concentration of one partner at which half of the binding sites on the other are occupied at equilibrium, for simple one-to-one binding) is more than 200 µM.
